Experimental findings from PMC5478280 are described below.

The target in assay [1] is Csy complex (type I-F crRNA-guided surveillance complex), wild type (P. aeruginosa (strain PA14)) (UniProt Q02ML9). The assay is described as follows: cryo-EM structure.
Assay [2] deals with Csy complex with Cas7f K85A (P. aeruginosa (strain PA14)) (UniProt Q02ML9). Description: SPR. On the technique in general: In SPR one partner is held on a chip, and binding of the other changes the refractive index at the surface.

A word on the stoichiometry N: it is a count of units in the complex or per binding partner. With “anti-CRISPR protein AcrF2 (natural protein)”, in assay [1], the stoichiometry N stood at 1.
On to “anti-CRISPR protein AcrF1 (natural protein)”, for which the kd1 (dissociation rate) in assay [2] came to 0.00031 s⁻¹. In addition, in assay [1], the stoichiometry N stood at 2.
